For this experiment, the target named is T1, low-density lipoprotein (LDL) receptor-related protein 1 (LRP1), purified human full-length (human, UniProt Q07954 20-4544).
T1 construct: LRP1, human, purified full-length protein coated onto microtiter plates; also called full-length LRP1; Full-length sLRP1; source: purified
The experiment in a line: ELISA; solid-phase binding assay; human full-length LRP1 (10 nmol/L) coated overnight at 4 °C onto microtiter plates in 50 mmol/L Tris-HCl (pH 7.5)/150 mmol/L NaCl/10 mmol/L CaCl2; 0-200 nmol/L Wnt in 5% BSA blocking solution, 30 min at RT; bound Wnt detected with a specific antibody; signal of wells without LRP1 subtracted; apparent KD (K_D,app), extrapolated from a one-phase decay nonlinear fit. The settings on record: both partners purified.

T1 sequence (Q07954 20-4544): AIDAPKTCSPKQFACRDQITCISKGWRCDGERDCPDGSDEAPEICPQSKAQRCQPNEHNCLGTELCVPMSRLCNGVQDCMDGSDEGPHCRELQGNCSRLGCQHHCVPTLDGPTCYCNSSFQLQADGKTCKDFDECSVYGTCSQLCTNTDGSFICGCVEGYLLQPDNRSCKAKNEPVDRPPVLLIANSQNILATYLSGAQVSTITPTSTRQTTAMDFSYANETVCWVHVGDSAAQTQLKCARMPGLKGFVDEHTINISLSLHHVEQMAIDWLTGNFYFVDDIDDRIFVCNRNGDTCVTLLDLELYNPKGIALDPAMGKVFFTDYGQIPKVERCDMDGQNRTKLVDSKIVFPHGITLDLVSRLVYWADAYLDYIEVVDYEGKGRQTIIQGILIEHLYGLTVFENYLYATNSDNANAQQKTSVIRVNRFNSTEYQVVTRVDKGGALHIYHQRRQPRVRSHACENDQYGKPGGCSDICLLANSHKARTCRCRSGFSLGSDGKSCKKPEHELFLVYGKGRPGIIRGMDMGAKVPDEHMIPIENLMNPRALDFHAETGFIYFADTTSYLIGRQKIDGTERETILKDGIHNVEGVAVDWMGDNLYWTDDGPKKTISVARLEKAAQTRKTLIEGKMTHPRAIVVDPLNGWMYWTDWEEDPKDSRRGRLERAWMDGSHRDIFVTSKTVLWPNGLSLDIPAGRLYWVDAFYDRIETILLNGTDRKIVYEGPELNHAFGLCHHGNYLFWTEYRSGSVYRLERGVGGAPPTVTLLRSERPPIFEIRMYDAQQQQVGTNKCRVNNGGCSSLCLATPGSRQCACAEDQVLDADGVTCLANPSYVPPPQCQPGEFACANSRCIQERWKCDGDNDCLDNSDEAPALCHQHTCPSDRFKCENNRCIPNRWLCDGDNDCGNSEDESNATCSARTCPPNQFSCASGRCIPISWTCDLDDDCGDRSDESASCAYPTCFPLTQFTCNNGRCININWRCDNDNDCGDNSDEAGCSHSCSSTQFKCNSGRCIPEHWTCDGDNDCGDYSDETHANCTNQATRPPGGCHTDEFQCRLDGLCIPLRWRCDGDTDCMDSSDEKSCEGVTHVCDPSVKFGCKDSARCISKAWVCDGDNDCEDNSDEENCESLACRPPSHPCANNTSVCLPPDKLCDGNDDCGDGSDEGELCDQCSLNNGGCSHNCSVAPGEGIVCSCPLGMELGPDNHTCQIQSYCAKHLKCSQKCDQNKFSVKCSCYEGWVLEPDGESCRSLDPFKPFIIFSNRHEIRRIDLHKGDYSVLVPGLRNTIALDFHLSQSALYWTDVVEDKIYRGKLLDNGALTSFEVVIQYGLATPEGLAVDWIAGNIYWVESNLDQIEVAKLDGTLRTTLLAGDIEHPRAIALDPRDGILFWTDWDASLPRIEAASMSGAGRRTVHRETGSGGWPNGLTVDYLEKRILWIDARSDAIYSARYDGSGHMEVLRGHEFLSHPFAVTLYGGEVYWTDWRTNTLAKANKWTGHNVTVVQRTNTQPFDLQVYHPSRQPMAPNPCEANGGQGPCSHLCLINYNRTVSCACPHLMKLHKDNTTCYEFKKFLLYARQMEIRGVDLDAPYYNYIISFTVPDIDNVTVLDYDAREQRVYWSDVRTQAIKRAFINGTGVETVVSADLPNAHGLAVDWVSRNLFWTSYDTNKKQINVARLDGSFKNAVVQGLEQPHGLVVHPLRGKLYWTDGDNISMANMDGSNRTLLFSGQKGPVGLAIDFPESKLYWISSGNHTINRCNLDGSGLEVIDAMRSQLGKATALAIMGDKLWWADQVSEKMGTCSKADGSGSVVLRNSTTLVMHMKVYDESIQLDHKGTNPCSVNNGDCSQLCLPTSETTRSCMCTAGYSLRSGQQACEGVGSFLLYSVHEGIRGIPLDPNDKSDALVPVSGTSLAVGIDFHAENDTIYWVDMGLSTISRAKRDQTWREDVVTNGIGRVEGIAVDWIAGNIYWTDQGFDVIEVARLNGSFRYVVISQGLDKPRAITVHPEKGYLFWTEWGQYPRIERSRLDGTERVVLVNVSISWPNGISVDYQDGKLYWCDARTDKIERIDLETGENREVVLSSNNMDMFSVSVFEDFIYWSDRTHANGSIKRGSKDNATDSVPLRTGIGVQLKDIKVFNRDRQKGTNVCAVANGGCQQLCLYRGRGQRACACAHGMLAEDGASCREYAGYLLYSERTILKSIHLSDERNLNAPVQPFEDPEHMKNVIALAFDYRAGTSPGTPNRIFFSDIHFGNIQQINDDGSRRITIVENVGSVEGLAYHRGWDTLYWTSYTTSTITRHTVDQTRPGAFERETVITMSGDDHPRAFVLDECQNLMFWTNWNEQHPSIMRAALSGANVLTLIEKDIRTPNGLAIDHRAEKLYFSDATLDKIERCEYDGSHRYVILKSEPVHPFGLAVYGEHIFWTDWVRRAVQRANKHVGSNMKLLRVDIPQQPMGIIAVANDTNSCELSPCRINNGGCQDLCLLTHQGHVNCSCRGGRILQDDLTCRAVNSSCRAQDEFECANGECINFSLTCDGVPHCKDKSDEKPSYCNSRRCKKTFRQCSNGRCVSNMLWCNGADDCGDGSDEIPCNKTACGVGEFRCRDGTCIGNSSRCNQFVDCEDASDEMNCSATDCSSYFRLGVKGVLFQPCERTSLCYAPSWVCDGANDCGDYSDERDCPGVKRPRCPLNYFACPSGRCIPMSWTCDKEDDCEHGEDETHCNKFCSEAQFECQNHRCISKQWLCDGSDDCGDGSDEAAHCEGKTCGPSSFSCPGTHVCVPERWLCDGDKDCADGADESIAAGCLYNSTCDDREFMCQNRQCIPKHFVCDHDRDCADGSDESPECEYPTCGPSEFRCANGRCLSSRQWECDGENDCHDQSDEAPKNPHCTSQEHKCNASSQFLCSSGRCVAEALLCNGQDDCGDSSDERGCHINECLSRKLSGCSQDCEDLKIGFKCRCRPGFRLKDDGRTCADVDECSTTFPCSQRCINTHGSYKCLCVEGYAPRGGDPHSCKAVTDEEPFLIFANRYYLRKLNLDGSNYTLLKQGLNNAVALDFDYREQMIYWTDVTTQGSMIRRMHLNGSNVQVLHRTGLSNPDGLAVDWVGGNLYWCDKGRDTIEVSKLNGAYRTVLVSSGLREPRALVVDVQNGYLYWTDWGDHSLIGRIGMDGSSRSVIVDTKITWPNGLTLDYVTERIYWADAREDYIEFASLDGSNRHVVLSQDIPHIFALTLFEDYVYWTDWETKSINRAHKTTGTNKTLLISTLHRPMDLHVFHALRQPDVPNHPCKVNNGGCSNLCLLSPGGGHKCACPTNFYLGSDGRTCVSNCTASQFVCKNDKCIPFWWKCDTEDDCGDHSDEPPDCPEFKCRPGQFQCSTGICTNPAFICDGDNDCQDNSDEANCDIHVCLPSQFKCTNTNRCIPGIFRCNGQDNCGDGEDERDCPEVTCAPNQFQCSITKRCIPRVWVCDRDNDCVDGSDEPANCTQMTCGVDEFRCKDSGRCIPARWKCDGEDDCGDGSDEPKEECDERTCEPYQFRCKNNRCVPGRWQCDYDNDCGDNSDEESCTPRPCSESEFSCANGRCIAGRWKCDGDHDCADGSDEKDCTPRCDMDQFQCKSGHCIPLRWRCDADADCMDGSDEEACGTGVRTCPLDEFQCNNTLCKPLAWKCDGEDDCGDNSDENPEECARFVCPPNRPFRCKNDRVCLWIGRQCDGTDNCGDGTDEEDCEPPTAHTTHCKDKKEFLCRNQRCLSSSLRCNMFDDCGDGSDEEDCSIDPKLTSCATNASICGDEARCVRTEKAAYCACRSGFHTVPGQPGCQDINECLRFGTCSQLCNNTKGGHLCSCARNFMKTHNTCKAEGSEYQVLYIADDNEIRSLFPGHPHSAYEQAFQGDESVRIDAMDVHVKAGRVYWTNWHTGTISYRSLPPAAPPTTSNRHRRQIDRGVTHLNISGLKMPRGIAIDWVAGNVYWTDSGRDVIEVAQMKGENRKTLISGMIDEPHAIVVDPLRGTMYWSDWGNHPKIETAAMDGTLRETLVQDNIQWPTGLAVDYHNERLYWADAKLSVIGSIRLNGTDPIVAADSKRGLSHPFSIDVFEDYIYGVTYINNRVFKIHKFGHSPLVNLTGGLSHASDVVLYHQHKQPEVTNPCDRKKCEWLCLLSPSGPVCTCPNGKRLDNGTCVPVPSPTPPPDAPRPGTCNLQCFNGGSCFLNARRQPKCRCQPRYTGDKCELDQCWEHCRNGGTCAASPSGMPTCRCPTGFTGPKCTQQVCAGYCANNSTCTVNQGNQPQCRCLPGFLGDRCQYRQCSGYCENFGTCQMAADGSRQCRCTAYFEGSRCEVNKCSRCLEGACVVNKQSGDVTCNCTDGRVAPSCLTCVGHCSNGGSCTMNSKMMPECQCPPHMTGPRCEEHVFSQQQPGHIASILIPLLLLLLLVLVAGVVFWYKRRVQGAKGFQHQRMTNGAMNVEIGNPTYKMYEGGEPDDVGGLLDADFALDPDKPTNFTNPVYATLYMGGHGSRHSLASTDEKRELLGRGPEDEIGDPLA

B1: Wnt5a (ligand, UniProt P41221 62-380, looked up)
chain: IIGAQPLCSQLAGLSQGQKKLCHLYQDHMQYIGEGAKTGIKECQYQFRHRRWNCSTVDNTSVFGRVMQIGSRETAFTYAVSAAGVVNAMSRACREGELSTCGCSRAARPKDLPRDWLWGGCGDNIDYGYRFAKEFVDARERERIHAKGSYESARILMNLHNNEAGRRTVYNLADVACKCHGVSGSCSLKTCWLQLADFRKVGDALKEKYDSAAAMRLNSRGKLVQVNSRFNSPTTQDLVYIDPSPDYCVRNESTGSLGTQGRLCNKTSEGMDGCELMCCGRGYDQFKTVQTERCHCKFHWCCYVKCKKCTEIVDQFVCK
notes: Wnt5a, purified protein; also called purified Wnt5a; source: purified
As to B1, the Kd is 31 nM.

B2: Wnt3a (ligand, UniProt P56704 19-352, looked up)
chain: SYPIWWSLAVGPQYSSLGSQPILCASIPGLVPKQLRFCRNYVEIMPSVAEGIKIGIQECQHQFRGRRWNCTTVHDSLAIFGPVLDKATRESAFVHAIASAGVAFAVTRSCAEGTAAICGCSSRHQGSPGKGWKWGGCSEDIEFGGMVSREFADARENRPDARSAMNRHNNEAGRQAIASHMHLKCKCHGLSGSCEVKTCWWSQPDFRAIGDFLKDKYDSASEMVVEKHRESRGWVETLRPRYTYFKVPTERDLVYYEASPNFCEPNPETGSFGTRDRTCNVSSHGIDGCDLLCCGRGHNARAERRREKCRCVFHWCCYVSCQECTRVYDVHTCK
notes: Wnt3a, purified protein; also called purified Wnt3a; source: purified
Take B2: the Kd is over 200 nM.

B3: Wnt11 (ligand, UniProt O96014 25-354, looked up)
chain: IKWLALSKTPSALALNQTQHCKQLEGLVSAQVQLCRSNLELMHTVVHAAREVMKACRRAFADMRWNCSSIELAPNYLLDLERGTRESAFVYALSAAAISHAIARACTSGDLPGCSCGPVPGEPPGPGNRWGGCADNLSYGLLMGAKFSDAPMKVKKTGSQANKLMRLHNSEVGRQALRASLEMKCKCHGVSGSCSIRTCWKGLQELQDVAADLKTRYLSATKVVHRPMGTRKHLVPKDLDIRPVKDSELVYLQSSPDFCMKNEKVGSHGTQDRQCNKTSNGSDSCDLMCCGRGYNPYTDRVVERCHCKYHWCCYVTCRRCERTVERYVCK
notes: Wnt11, purified protein; also called purified Wnt11; source: purified
Take B3: the Kd is 42 nM.

Values taken from PMC11770177, “Skeletal progenitor LRP1 deficiency causes severe and persistent skeletal defects with Wnt pathway dysregulation” (Bone Research, 2025).
